What was measured:
[1] = biological target: the molecule itself; assay: SEC; Superdex 200 10/300 GL, 20 mM phosphate buffer pH 8.0, 150 mM NaCl, 2 mM GSH, 0.5 mL/min, 25°C; calibrated with molecular weight standards
purified protein = substrate: S=C=NCCc1ccccc1; assay: purified protein; format: biochemical, Synechocystis sp. PCC 6803; parameters: Vmax: unit not given here; settings: co-substrate 1 mM GSH, 50 mM potassium phosphate pH 6.5, 150 mM NaCl, 30 °C

B1: Glutathione S-transferase sll0067 from Synechocystis PCC 6803 (enzyme, UniProt Q55139 1-184, looked up)
chain: MIKLYGAPQSRASIIQWYLEELSLPYEFVNVNLKEGEHRQAPYLAINPFGKVPAIADGNFHLWESGAILLYLAEKASTIPADAQARALVNQWILFANSTLANGLFIEAVREKEMPRLLQSLEKILGRSPFILGEKFSVVDVAVGSILAYVPIMLKLNFDDYPAVAAYVQGLVQRPAFQASIGAR
notes: gene of 0.55 kb amplified from genomic DNA with primers from the ATG to the stop codon; subunit of about 20 kDa; Cloned at BamHI and HindIII sites of pQE30 and purified on Ni-NTA; also called GST sll0067; recombinant sll0067; source: E. coli M15, purified (Ni-NTA agarose)
[1]
  stoichiometry N: 2
Purified protein
  Km: 0.3193 ± 0.033 mM
  Vmax: 21.8
  kcat: 15.2 ± 0.58 s⁻¹
  kcat/Km: 47500 ± 620 M⁻¹ s⁻¹
